Values belong to the substance of their own block, whether it stands above or below them.
What was measured:
[1] = molecular target: 3TD of SETDB1, W358A mutant, as used in ITC and crystals (UniProt Q15047); assay: ITC; 25 °C, VP-ITC, 20 mM Tris/HCl pH 7.0, 150 mM NaCl; protein 50 to 100 μM, ligand 1–2 mM; one-site binding model
[2] = molecular target: H3K9me1/K14ac peptide in solution (ITC); assay: ITC; details: read off a plot
[3] = molecular target: H3K9me2/K14ac peptide in solution (ITC; crystal with W358A), limits not stated; assay: ITC; details: read off a plot
[4] = molecular target: H3K9me3/K14ac peptide in solution (ITC; crystals); assay: ITC; details: read off a plot

Substance: H3K9me2/K14ac peptide in solution (ITC; crystal with W358A), limits not stated
fold reduction of affinity against wildtype 3TD [1]: 18 fold

Substance: H3K9me3/K14ac peptide in solution (ITC; crystals)
fold reduction of binding against wildtype 3TD [1]: 2 fold

ratio to parent [2]: 1.5
ratio to parent [3]: 1.1
ratio to parent [4]: 0.18
Substance: triple Tudor domain (3TD) of SETDB1, wildtype, as used in solution (ITC, NMR, crystals) (from UniProt Q15047) Y268A
